Data published in patent US20230265192A1 (GIGAGEN, published 2023).
Changes are numbered by the printed parent chain.

B1: antibody A4 (L4H4) (antibody, V domains shown)
VH: QVQLVESGGGVVQPGRSLRISCAASGFTFSSYGIHWVRQAPGKGLQWVAVIWYDGRNKYYADSVKGRFTISRDNSKNTLYLQMNSLRAEDTAVYYCSRSGSFGAFDIWGQGTMVTVSS
VL: EIVLTQSPGTLSLSPGDRATLSCRASQSGSSSYLAWYQQKPGQAPRLLIYGASSRATGIPDRFSGSGSGTDFTLTISRLEPEDFAVYYCQQYGTSPFTSGPGTKVDIK
notes: also called aCTLA-4.29
B2: antibody A6 (L6H6) (antibody, V domains shown)
VH: QVQLVESGGGVVQPGRSLRLSCAASGFTFSSYGMHWVRQAPGKGLEWVAVIWYDGSYKYYADSVKGRFTISRDDSKNTLYLQMSSLRAEDTAVYYCARAPHYAILTGYYEDYWGQGTLVTVSS
VL: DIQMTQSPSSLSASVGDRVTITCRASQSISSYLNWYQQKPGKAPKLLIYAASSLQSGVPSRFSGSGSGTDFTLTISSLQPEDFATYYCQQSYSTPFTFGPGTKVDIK
B3: antibody A10 (L10H10) (antibody, V domains shown)
VH: QVQLVESGGGVVQPGRSLRLSCVASGFTLSSYGMHWVRQAPGKGLEWVAVIWYDGSNKHYADSVKGRFTISRDNSKNTLSLQMNSLRAEDTAVYYCARGGQLGPFDYWGQGTLVTVSS
VL: not shown
notes: also called aCTLA-4.22
B4: antibody A8 (L8H8) (antibody, V domains shown)
VH: B3 VH with V23A, L29F, S31R, S56R, H59Y, S80Y, V93L, Y95S, G99A, Q101E
VL: EIVLTQSPGTLSLSPGERATLSCRASQSVSYLAWYQQKPGQAPRLLIYGASSRATGIPDRFSGSGSGTDFTLTISRLEPEDFAVYYCQQYGSSPWTFGQGTKVEIK
notes: also called aCTLA-4.1
B5: antibody A13 (L13H13) (antibody, V domains shown)
VH: QVQLVESGGGVVQPGRSLRLSCAASGFTFSSYGMHWVRQAPGKGLEWVAVIWYDGRNKDYADSVKGRITISRDNSKNTLYLQMNSLRAEDTAVYYCARGGLLGPYFDYWGQGTLVTVSS
VL: not shown
notes: also called aCTLA-4.14

The binders below were run against T1, His-tagged cynomolgus CTLA-4 (CT4-C5227; Acro Biosystems) (cynomolgus, UniProt G7PL88 36-161) (assay: BLI (Octet)).
T1 construct: also called soluble cynomolgus CTLA-4; cyno CTLA-4
Protocol: (§1) The binding specificity and affinity of each full-length antibody towards CTLA-4 were determined using biolayer interferometry (BLI) and/or surface plasmon resonance (SPR). Anti-cyno CTLA-4 and anti-mouse CTLA-4 affinities were tested using ForteBio (BLI). Anti-human CTLA-4 affinities were measured using Carterra (SPR).
(§2) For BLI, antibodies were loaded onto an Anti-Human IgG Fc (AHC) biosensor using the Octet Red96 system (ForteBio). Loaded biosensors were dipped into antigen dilutions beginning at 300 nM, with 6 serial dilutions at 1:3. Kinetic analysis was performed using a 1:1 binding model and global fitting.

T1 sequence (G7PL88 entry or part of it limits assumed, form in doubt): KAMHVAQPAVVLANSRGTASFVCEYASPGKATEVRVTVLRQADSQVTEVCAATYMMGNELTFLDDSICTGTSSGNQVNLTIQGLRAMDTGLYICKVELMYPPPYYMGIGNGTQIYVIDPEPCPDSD

Kd [nM]	Binder
1.2	B1
1.6	B2
3.1	B3
1	B4
9.6	B5

Each binder was assayed against mouse CTLA-4 (mouse, UniProt P09793 36-161, limits assumed) (assay: BLI (Octet)).
Protocol: as §1, §2

mouse CTLA-4, sequence (P09793 36-161 limits assumed): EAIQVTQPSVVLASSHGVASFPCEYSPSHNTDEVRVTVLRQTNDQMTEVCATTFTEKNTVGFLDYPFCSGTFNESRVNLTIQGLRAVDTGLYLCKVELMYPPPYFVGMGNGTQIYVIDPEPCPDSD

binding result	Kd [nM]	Binder
no binding (tested: 300 nM)	–	B1
–	87.8	B2
no binding (tested: 300 nM)	–	B3
no binding (tested: 300 nM)	–	B4

What follows are binders tested against T2, His-tagged human CTLA-4 (CT4-H5229; Acro Biosystems) (human, UniProt P16410 36-161) (assay: SPR (Carterra)).
T2 construct: bought soluble protein; also called soluble human CTLA-4; recombinant human CTLA-4; not shown: His tag
Protocol: (§3) Then, goat anti-Human IgG Fc (Southern Biotech 2047-01) was coupled for 10 minutes at […] in 10 mM Sodim Acetate pH 4.5 (Carterra Inc.). The surface was then deactivated with 1 M ethanolamine pH 8.5 (Carterra Inc.). Running buffer used for the lawn immobilization was HBS-EPC (10 mM HEPES, 150 mM NaCl, 3 mM EDTA, 0.05% Tween 20, pH 7.4; Teknova).
(§4) The sensor chip was then transferred to a continuous flow microspotter (CFM; Carterra Inc.) for array capturing. The mAb supernatants were diluted 50-fold ([…] final concentration) into HBS-EPC with 1 mg/mL BSA. The samples were each captured twice with 15-minute and 4-minute capture steps on the first and second prints, respectively, to create multiple densities, using a […] flow rate. The running buffer in the CFM was also HBS-EPC.
(§5) Next, the sensor chip was loaded onto an SPR reader (MX-96 system; Ibis Technologies) for the kinetic analysis. CTLA-4 was injected at five increasing concentrations in a four-fold dilution series with concentrations of 1.95, 7.8, 31.25, 125, and 500 nM in running buffer (HBS-EPC with 1.0 mg/mL BSA). CTLA-4 injections were 5 minutes with a 15-minute dissociation at […] in a non-regenerative kinetic series. An injection of the goat anti-Human IgG Fc capture antibody at […] was injected at the end of the series to verify the capture level of each mAb. Binding data was double referenced by subtracting an interspot surface and a blank injection and analyzed for ka (on-rate), kd (off-rate), and KD (affinity) using the Kinetic Interaction Tool software (Carterra Inc.).

T2 sequence (P16410 36-161 limits assumed): as the sequence (G7PL88 entry or part of it limits assumed, form in doubt) above, with N14S, T18I, M106L counted along it

Kd [nM]	Binder
3	B1
5.7	B2
22	B3
4.6	B4
3.2	B5

Molecular target: T2, His-tagged human CTLA-4 (CT4-H5229; …)
Assay: SPR (Carterra)
Remark: another data set of the same source
Protocol: as §3, §4, §5

Kd [nM]	koff [s⁻¹]	kon [M⁻¹ s⁻¹]	Binder
3	0.00023	76000	B1
5.7	0.00035	61000	B2
22	0.00051	23000	B3
4.6	0.00039	85000	B4
3.2	0.00042	130000	B5

The binders below were run against T3, human CTLA-4 expressed on the cell surface (human, UniProt P16410 36-223) (assay: cell-based or functional assay).
T3 sequence (P16410 36-223 limits assumed): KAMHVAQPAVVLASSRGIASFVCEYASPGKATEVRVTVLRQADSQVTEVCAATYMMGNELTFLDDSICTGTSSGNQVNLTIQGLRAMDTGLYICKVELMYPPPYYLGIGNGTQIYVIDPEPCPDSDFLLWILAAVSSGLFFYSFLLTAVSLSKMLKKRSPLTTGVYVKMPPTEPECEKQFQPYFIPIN

Promega assay % inhibition [%]	Promega assay antagonist (EC50, ug/mL) [µg/mL]	Binder
81	0.15	B1
61.7	0.18	B2
24.5	0.26	B3
54.7	0.15	B4
13.3	0.09	B5

Molecular target: T3, human CTLA-4 expressed on the cell …
Assay: cell-based or functional assay
Remark: another data set of the same source

Cell-based blocking activity EC50 [µg/mL]	Cell-based blocking activity max signal (RLU)	Binder
0.15	444	B1
0.18	338	B2
0.26	134	B3
0.1	349	B4
0.09	73	B5

These binders were tested against T2, His-tagged human CTLA-4 (CT4-H5229; …) (assay: SPR (Carterra), soluble human CTLA-4).

Kd [nM]	koff [s⁻¹]	kon [M⁻¹ s⁻¹]	Binder
3	0.00023	76000	B1
5.7	0.00035	61000	B2
22	0.00051	23000	B3
4.6	0.00039	85000	B4
3.2	0.00042	130000	B5

What follows are binders tested against T1, His-tagged cynomolgus CTLA-4 … (assay: BLI (Octet), single antigen concentration).
Protocol: (§6) Table 23. In vitro characterization of scFvs reformatted as full-length antibodies. kon, koff, and KD of the indicated CTLA-4 mAbs for soluble human CTLA-4 was determined by SPR (Carterra). Geometric MFI of the indicated CTLA-4 mAbs bound to CTLA-4⁺ or CD27⁺ CHO cells as detected by a secondary human IgG antibody and flow cytometry. Affinity (KD) of the indicated CTLA-4 mAbs for soluble cynomolgus CTLA-4 was determined by a single antigen concentration BLI measurement (Octet). […] Due to constraints on sample size in each Promega bioassay kit, this set of aCTLA-4 mAbs was analyzed using multiple plates (plate letters correspond to Plate A-D in FIG. 20D).
Antibodies were loaded at 5 μg/mL onto Protein A biosensors that were dipped into 80 nM antigen, and kinetic constants were calculated using a monovalent model.

Kd [nM]	Binder
1.2	B1
1.6	B2
3.1	B3
1	B4
9.6	B5

Each binder was assayed against T3, human CTLA-4 expressed on the cell … (assay: flow cytometry, 10 µg/mL mAb, geometric MFI).
Protocol: as §6
(§7) To determine if the CTLA-4 mAbs bound the appropriate antigen expressed on the surface of mammalian cells, CHO cell lines stably expressing human CTLA-4 or an irrelevant antigen (CD27) were generated. Cells (0.5×10⁶ each cell line) were combined and washed with MACS buffer (Dulbecco's Phosphate Buffered Saline [DPBS], with 0.5% bovine serum albumin [BSA], and 2 mM ethylenediaminetetraacetic acid [EDTA]). The cells were incubated with 10 μg/mL anti-CTLA-4 for 30 min at 4° C., then excess, unbound mAbs were removed by washing twice with MACS buffer. The cells were then stained with PE-conjugated anti-Human IgG Fc antibody (clone M1310G05, BioLegend 410720, San Diego, Calif., USA) to detect bound anti-CTLA-4 and with fluorescein isothiocyanate (FITC)-conjugated anti-CD27 (clone 0323, BioLegend 302806, San Diego, Calif., USA) to distinguish the cells expressing the irrelevant antigen. Cells were washed twice with MACS buffer, fixed with 4% paraformaldehyde fixation buffer (BioLegend 420801, San Diego, Calif., USA) for 20 minutes at room temperature and washed twice more with MACS buffer.

MFI of CTLA-4+ CHO cells	Binder
999	B1
939	B2
641	B3
1010	B4
1024	B5

What follows are binders tested against T4, CD27 on CHO cells (UniProt P26842 20-260, limits assumed) (assay: flow cytometry, 10 µg/mL mAb, geometric MFI).
T4 construct: whole, on cells; also called CD27+ CHO cells; irrelevant antigen (CD27)
Protocol: as §6, §7

T4 sequence (P26842 20-260 limits assumed): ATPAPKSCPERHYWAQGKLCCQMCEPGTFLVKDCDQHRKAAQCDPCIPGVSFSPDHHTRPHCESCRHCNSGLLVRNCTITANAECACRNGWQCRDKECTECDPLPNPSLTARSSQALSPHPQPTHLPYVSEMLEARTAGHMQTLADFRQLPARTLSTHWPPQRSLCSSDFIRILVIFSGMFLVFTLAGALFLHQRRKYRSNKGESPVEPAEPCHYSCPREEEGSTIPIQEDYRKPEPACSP

MFI of CD27+ CHO cells	Binder
16.3	B1
17.8	B2
15.2	B3
18.6	B4
17	B5

The binders below were run against T4, CD27 on CHO cells (assay: flow cytometry, mixed CTLA-4+ and CD27+ CHO cells).
Protocol: To determine if the CTLA-4 mAbs bound the appropriate antigen expressed on the surface of mammalian cells, CHO cell lines stably expressing human CTLA-4 or an irrelevant antigen (CD27) were generated. Cells (0.5×10⁶ each cell line) were combined and washed with MACS buffer (Dulbecco's Phosphate Buffered Saline [DPBS], with 0.5% bovine serum albumin [BSA], and 2 mM ethylenediaminetetraacetic acid [EDTA]). The cells were incubated with 10 μg/mL anti-CTLA-4 for 30 min at 4° C., then excess, unbound mAbs were removed by washing twice with MACS buffer. The cells were then stained with PE-conjugated anti-Human IgG Fc antibody (clone M1310G05, BioLegend 410720, San Diego, Calif., USA) to detect bound anti-CTLA-4 and with fluorescein isothiocyanate (FITC)-conjugated anti-CD27 (clone 0323, BioLegend 302806, San Diego, Calif., USA) to distinguish the cells expressing the irrelevant antigen. Cells were washed twice with MACS buffer, fixed with 4% paraformaldehyde fixation buffer (BioLegend 420801, San Diego, Calif., USA) for 20 minutes at room temperature and washed twice more with MACS buffer. […] Binding of mAbs to CTLA-4 on the cell surface was determined using LSR II (BD Biosciences, San Jose, Calif., USA) or CytoFLEX LX (Beckman Coulter, Brea. Calif., USA) flow cytometers and analyzed using FlowJo (v10.6.1, BD Biosciences, San Jose, Calif., USA).

binding result	Binder
no binding (tested: 10 µg/mL)	B1
no binding (tested: 10 µg/mL)	B2
no binding (tested: 10 µg/mL)	B3
no binding (tested: 10 µg/mL)	B4
no binding (tested: 10 µg/mL)	B5
